Data as given in patent US20260132193A1 (XBIOTECH, published 2026).

Target: T1, recombinant human interleukin 1 alpha (IL-1α) (human, UniProt P01583 113-271)
T1 sequence (looked up): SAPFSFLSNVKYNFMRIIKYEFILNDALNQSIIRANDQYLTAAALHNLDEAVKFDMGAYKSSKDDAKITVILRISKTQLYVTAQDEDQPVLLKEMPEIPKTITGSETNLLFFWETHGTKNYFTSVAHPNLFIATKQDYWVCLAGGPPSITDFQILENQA
Experiment: cell-based or functional assay

- HUVEC-based potency assay (ICAM-1 expression by flow cytometry), IC50: 3.4 ng/mL
B1: XIA11 human monoclonal antibody (antibody, V domains shown)
VH: QVQLVQSGAEVKKPGSSVKVSCKASGGRFTNYAILWVRQAPGQGLQWLGGIIPIFDETDHAQDFQDRLTITVDESMTTAYMELSSLRPEDTAIYYCATGSNSYYGLYWGQGTLVTVSS
VL: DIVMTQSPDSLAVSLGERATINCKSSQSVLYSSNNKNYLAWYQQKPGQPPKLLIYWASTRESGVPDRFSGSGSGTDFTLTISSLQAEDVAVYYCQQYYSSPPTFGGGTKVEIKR
